In patent publication US20230220042A1 (SHANGHAI JIAO TONG UNIVERSITY SCHOOL OF MEDICINE, published 2023):
Residue numbers refer to the chain shown, from its start. Names and notes keep the numbering of the source.

B1: human IgG2 anti-mouse CD40 surface displayed antibody, H268D (antibody, name in EU numbering)
light chain (with the P2A rest): DTVLTQSPALAVSPGERVTISCRASDSVSTLMHWYQQKPGQQPKLLIYLASHLESGVPARFSGSGSGTDFTLTIDPVEADDTATYYCQQSWNDPWTFGGGTKLELKRTVAAPSVFIFPPSDEQLKSGTASVVCLLNNFYPREAKVQWKVDNALQSGNSQESVTEQDSKDSTYSLSSTLTLSKADYEKHKVYACEVTHQGLSSPVTKSFNRGECGSGATNFSLLKQAGDVEENPG
heavy chain: EVQLVESDGGLVQPGRSLKLPCAASGFTFSDYYMAWVRQAPTKGLEWVASISYDGSSTYYRDSVKGRFTISRDNAKSTLYLQMDSLRSEDTATYYCGRHSSYFDYWGQGVMVTVSSASTKGPSVFPLAPCSRSTSESTAALGCLVKDYFPEPVTVSWNSGALTSGVHTFPAVLQSSGLYSLSSVVTVPSSNFGTQTYTCNVDHKPSNTKVDKTVERKCCVECPPCPAPPVAGPSVFLFPPKPKDTLMISRTPEVTCVVVDVSDEDPEVQFNWYVDGVEVHNAKTKPREEQFNSTFRVVSVLTVVHQDWLNGKEYKCKVSNKGLPAPIEKTISKTKGQPREPQVYTLPPSREEMTKNQVSLTCLVKGFYPSDIAVEWESNGQPENNYKTTPPMLDSDGSFFLYSKLTVDKSRWQQGNVFSCSVMHEALHNHYTQKSLSLSPGKLEPPPSTVSNMATVAVLVVLGAAIVTGAVVAFVMKMRRRNTGGKGGDYALAPGSQTSDLSLPDCKVMVHDPHSLA
notes: m1 with this Fc mutation (Eu numbering); copies: 2 + 2
B2: human IgG2 anti-mouse CD40 surface displayed antibody, S267E (antibody, name in EU numbering)
light chain (with the P2A rest): B1 light chain (with the P2A rest)
heavy chain: B1 heavy chain with S262E, D263H
notes: as for B1
B3: human IgG2 anti-mouse CD40 surface displayed antibody, S267E/P271V (antibody, name in EU numbering)
light chain (with the P2A rest): B1 light chain (with the P2A rest)
heavy chain: B1 heavy chain with S262E, D263H, P266V
notes: m1 with these Fc mutations (Eu numbering); copies: 2 + 2
B4: human IgG2 anti-mouse CD40 surface displayed antibody, S267E/P271C (antibody, name in EU numbering)
light chain (with the P2A rest): B1 light chain (with the P2A rest)
heavy chain: B1 heavy chain with S262E, D263H, P266C
notes: as for B3
B5: human IgG2 anti-mouse CD40 surface displayed antibody, P271G/S298R (antibody, name in EU numbering)
light chain (with the P2A rest): B1 light chain (with the P2A rest)
heavy chain: B1 heavy chain with D263H, P266G, S293R
notes: as for B3
B6: human IgG2 anti-mouse CD40 surface displayed antibody, P271C (antibody, name in EU numbering)
light chain (with the P2A rest): B1 light chain (with the P2A rest)
heavy chain: B1 heavy chain with D263H, P266C
notes: as for B1
B7: human IgG2 anti-mouse CD40 surface displayed antibody, P271G/T299W (antibody, name in EU numbering)
light chain (with the P2A rest): B1 light chain (with the P2A rest)
heavy chain: B1 heavy chain with D263H, P266G, T294W
notes: as for B3
B8: human IgG2 anti-mouse CD40 surface displayed antibody, S267D (antibody, name in EU numbering)
light chain (with the P2A rest): B1 light chain (with the P2A rest)
heavy chain: B1 heavy chain with S262D, D263H
notes: as for B1
B9: human IgG2 anti-mouse CD40 surface displayed antibody, P271G/S298L (antibody, name in EU numbering)
light chain (with the P2A rest): B1 light chain (with the P2A rest)
heavy chain: B1 heavy chain with D263H, P266G, S293L
notes: as for B3
B10: human IgG2 anti-mouse CD40 surface displayed antibody, S267A/P271C (antibody, name in EU numbering)
light chain (with the P2A rest): B1 light chain (with the P2A rest)
heavy chain: B1 heavy chain with S262A, D263H, P266C
notes: as for B3
B11: human IgG2 anti-mouse CD40 surface displayed antibody, S267E/D270H (antibody, name in EU numbering)
light chain (with the P2A rest): B1 light chain (with the P2A rest)
heavy chain: B1 heavy chain with S262E, D263H, D265H
notes: as for B3
B12: human IgG2 anti-mouse CD40 surface displayed antibody, P271G/S298K (antibody, name in EU numbering)
light chain (with the P2A rest): B1 light chain (with the P2A rest)
heavy chain: B1 heavy chain with D263H, P266G, S293K
notes: as for B3
B13: human IgG2 anti-mouse CD40 surface displayed antibody, S267E/P271W (antibody, name in EU numbering)
light chain (with the P2A rest): B1 light chain (with the P2A rest)
heavy chain: B1 heavy chain with S262E, D263H, P266W
notes: as for B3
B14: human IgG2 anti-mouse CD40 surface displayed antibody, H268K (antibody, name in EU numbering)
light chain (with the P2A rest): B1 light chain (with the P2A rest)
heavy chain: B1 heavy chain with D263K
notes: as for B1
B15: human IgG2 anti-mouse CD40 surface displayed antibody, P271G/T299M (antibody, name in EU numbering)
light chain (with the P2A rest): B1 light chain (with the P2A rest)
heavy chain: B1 heavy chain with D263H, P266G, T294M
notes: as for B3
B16: human IgG2 anti-mouse CD40 surface displayed antibody, P271G/S298N (antibody, name in EU numbering)
light chain (with the P2A rest): B1 light chain (with the P2A rest)
heavy chain: B1 heavy chain with D263H, P266G, S293N
notes: as for B3
B17: human IgG2 anti-mouse CD40 surface displayed antibody, P271Q (antibody, name in EU numbering)
light chain (with the P2A rest): B1 light chain (with the P2A rest)
heavy chain: B1 heavy chain with D263H, P266Q
notes: as for B1
B18: human IgG2 anti-mouse CD40 surface displayed antibody, P271G/T299A (antibody, name in EU numbering)
light chain (with the P2A rest): B1 light chain (with the P2A rest)
heavy chain: B1 heavy chain with D263H, P266G, T294A
notes: as for B3
B19: human IgG2 anti-mouse CD40 surface displayed antibody, S267A (antibody, name in EU numbering)
light chain (with the P2A rest): B1 light chain (with the P2A rest)
heavy chain: B1 heavy chain with S262A, D263H
notes: as for B1
B20: human IgG2 anti-mouse CD40 surface displayed antibody, S298L (antibody, name in EU numbering)
light chain (with the P2A rest): B1 light chain (with the P2A rest)
heavy chain: B1 heavy chain with D263H, S293L
notes: as for B1
B21: human IgG2 anti-mouse CD40 surface displayed antibody, P271G/T299S (antibody, name in EU numbering)
light chain (with the P2A rest): B1 light chain (with the P2A rest)
heavy chain: B1 heavy chain with D263H, P266G, T294S
notes: as for B3
B22: human IgG2 anti-mouse CD40 surface displayed antibody, P271G/S298D (antibody, name in EU numbering)
light chain (with the P2A rest): B1 light chain (with the P2A rest)
heavy chain: B1 heavy chain with D263H, P266G, S293D
notes: as for B3
B23: human IgG2 anti-mouse CD40 surface displayed antibody, S267A/P271G (antibody, name in EU numbering)
light chain (with the P2A rest): B1 light chain (with the P2A rest)
heavy chain: B1 heavy chain with S262A, D263H, P266G
notes: as for B3
B24: human IgG2 anti-mouse CD40 surface displayed antibody, P271G/P331T (antibody, name in EU numbering)
light chain (with the P2A rest): B1 light chain (with the P2A rest)
heavy chain: B1 heavy chain with D263H, P266G, P326T
notes: as for B3
B25: human IgG2 anti-mouse CD40 surface displayed antibody, P271G/S298E (antibody, name in EU numbering)
light chain (with the P2A rest): B1 light chain (with the P2A rest)
heavy chain: B1 heavy chain with D263H, P266G, S293E
notes: as for B3
B26: human IgG2 anti-mouse CD40 surface displayed antibody, S267R (antibody, name in EU numbering)
light chain (with the P2A rest): B1 light chain (with the P2A rest)
heavy chain: B1 heavy chain with S262R, D263H
notes: as for B1
B27: human IgG2 anti-mouse CD40 surface displayed antibody, S267V/S298L (antibody, name in EU numbering)
light chain (with the P2A rest): B1 light chain (with the P2A rest)
heavy chain: B1 heavy chain with S262V, D263H, S293L
notes: as for B3
B28: human IgG2 anti-mouse CD40 surface displayed antibody, P271G/S298G (antibody, name in EU numbering)
light chain (with the P2A rest): B1 light chain (with the P2A rest)
heavy chain: B1 heavy chain with D263H, P266G, S293G
notes: as for B3
B29: human IgG2 anti-mouse CD40 surface displayed antibody, H268E (antibody, name in EU numbering)
light chain (with the P2A rest): B1 light chain (with the P2A rest)
heavy chain: B1 heavy chain with D263E
notes: as for B1
B30: human IgG2 anti-mouse CD40 surface displayed antibody, S267E/S298R (antibody, name in EU numbering)
light chain (with the P2A rest): B1 light chain (with the P2A rest)
heavy chain: B1 heavy chain with S262E, D263H, S293R
notes: as for B3

Experiments:
[1] = molecular target: T1, Biotin-FcγRIIB (human FcγRIIB, Sino Biological) (human, UniProt P31994 43-217, limits assumed, biotin-labeled); test: NGS after FACS sort of 3T3-displayed Library2 for biotin-FcγRIIB binding
T1 construct: Used at 1 µg/ml with Streptavidin-APC for flow cytometry and sorting; also called CD32b
T1 sequence (looked up): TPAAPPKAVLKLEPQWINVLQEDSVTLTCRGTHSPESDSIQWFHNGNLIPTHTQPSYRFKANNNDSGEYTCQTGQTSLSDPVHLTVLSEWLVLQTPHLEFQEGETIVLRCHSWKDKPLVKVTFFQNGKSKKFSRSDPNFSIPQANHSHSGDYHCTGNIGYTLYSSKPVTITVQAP

[2] = molecular target: T1, Biotin-FcγRIIB (human FcγRIIB, Sino …); test: NGS after FACS sort of 3T3-displayed LibraryMix for biotin-FcγRIIB binding

Row | Binder | Enrichment factor (percentage after sorting/percentage before sorting) [1] | Increased factor (enrichment factor/wild-type enrichment factor) [1] | Enrichment factor (percentage after sorting/percentage before sorting) [2] | Increased factor (enrichment factor/wild-type enrichment factor) [2]
1 | B1 | 1.54 | 2.68 | – | –
2 | B2 | – | – | 217 | 290
3 | B3 | 22.1 | 38.4 | – | –
4 | B4 | 1000 | 1740 | – | –
5 | B5 | – | – | 16 | 21.4
6 | B6 | 17.1 | 29.9 | – | –
7 | B7 | – | – | 9.23 | 12.3
8 | B8 | 2.11 | 3.67 | – | –
9 | B9 | – | – | 188 | 252
10 | B10 | 37.4 | 65.1 | – | –
11 | B11 | 42.7 | 74.3 | – | –
12 | B12 | – | – | 10.2 | 13.6
13 | B13 | 24 | 41.8 | – | –
14 | B14 | 1.32 | 2.31 | – | –
15 | B15 | – | – | 4.74 | 6.33
16 | B16 | – | – | 18 | 24
17 | B17 | – | – | 1.65 | 2.21
18 | B18 | – | – | 6.28 | 8.39
19 | B19 | 3.17 | 5.52 | – | –
20 | B20 | – | – | 2.18 | 2.91
21 | B21 | – | – | 12 | 16
22 | B22 | – | – | 6.78 | 9.06
23 | B23 | 5.27 | 9.19 | – | –
24 | B24 | – | – | 32.3 | 43.2
25 | B25 | – | – | 298 | 398
26 | B26 | – | – | 1.52 | 2.03
27 | B27 | – | – | 2.09 | 2.8
28 | B28 | – | – | 9.73 | 13
29 | B29 | 1.69 | 2.94 | – | –
30 | B30 | – | – | 32.8 | 43.8
